In publication PMC2324120, “Disease mechanism for retinitis pigmentosa (RP11) caused by missense mutations in the splicing factor gene PRPF31” (Molecular Vision, 2008):

B1: GST-tagged PRPF6 middle HAT-containing domain (PRPF6M, residues 307-607) (domain or fragment, human, UniProt O94906 307-607, looked up)
chain: HHPPAWIASARLEEVTGKLQVARNLIMKGTEMCPKSEDVWLEAARLQPGDTAKAVVAQAVRHLPQSVRIYIRAAELETDIRAKKRVLRKALEHVPNSVRLWKAAVELEEPEDARIMLSRAVECCPTSVELWLALARLETYENARKVLNKARENIPTDRHIWITAAKLEEANGNTQMVEKIIDRAITSLRANGVEINREQWIQDAEECDRAGSVATCQAVMRAVIGIGIEEEDRKHTWMEDADSCVAHNALECARAIYAYALQVFPSKKSVWLRAAYFEKNHGTRESLEALLQRAVAHCPKA
notes: PRPF6 (U5-102 kD protein), human, residues 307-607, HAT domains 1-5 according to Pfam analysis; Cloned in pGEX6P-1 via EcoRI and SalI; also called GST-PRPF6M; PRP6F-M; not shown: GST, N-terminal, kept

Legend:
Experiment in all cases: pull-down; GST-tagged PRPF6 domain from 100 µl E. coli extract bound to glutathione sepharose beads in PBS, excess removed and beads washed; 0.1 nmol purified His-tagged PRPF31 added in 200 µl, 30 min at 4 °C; three washes with chilled PBS, eluted with reduced glutathione; Western blots with Penta-His and anti-GST antibodies; bands quantified and normalised to WT, four determinations
Details in all cases: both partners purified
[1] = target: T1, His-tagged PRPF31, wild type (human, UniProt Q8WWY3 1-499)
T1 construct: also called WT PRPF31; PRPF31-His; not shown: His tag, C-terminal, kept
T1 sequence (looked up): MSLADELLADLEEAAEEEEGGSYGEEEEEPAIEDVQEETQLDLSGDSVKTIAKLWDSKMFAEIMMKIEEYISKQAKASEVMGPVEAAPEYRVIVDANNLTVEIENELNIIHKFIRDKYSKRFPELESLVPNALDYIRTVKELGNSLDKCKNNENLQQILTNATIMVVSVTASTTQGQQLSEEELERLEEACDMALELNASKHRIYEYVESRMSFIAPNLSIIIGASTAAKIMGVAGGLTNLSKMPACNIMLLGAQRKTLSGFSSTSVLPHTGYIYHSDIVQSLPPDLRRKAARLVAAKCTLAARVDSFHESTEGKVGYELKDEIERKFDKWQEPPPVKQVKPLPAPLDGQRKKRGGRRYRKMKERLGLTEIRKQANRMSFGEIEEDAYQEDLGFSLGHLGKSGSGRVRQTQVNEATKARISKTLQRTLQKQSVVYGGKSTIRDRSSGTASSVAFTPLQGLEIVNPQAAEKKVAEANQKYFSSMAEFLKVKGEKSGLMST

[2] = target: T2, GST-tagged PRPF6 C-terminal HAT-containing domain (PRPF6C, residues 607-941) (human, UniProt O94906 607-941)
T2 construct: PRPF6 (U5-102 kD protein), human, residues 607-941, HAT domains 6-9 according to Pfam analysis; the forward primer printed for PRPF6C is nearly the same as that of PRPF6M; Cloned in pGEX6P-1 via EcoRI and SalI; also called GST-PRPF6C; PRP6F-C; not shown: GST, N-terminal, kept
T2 sequence (looked up): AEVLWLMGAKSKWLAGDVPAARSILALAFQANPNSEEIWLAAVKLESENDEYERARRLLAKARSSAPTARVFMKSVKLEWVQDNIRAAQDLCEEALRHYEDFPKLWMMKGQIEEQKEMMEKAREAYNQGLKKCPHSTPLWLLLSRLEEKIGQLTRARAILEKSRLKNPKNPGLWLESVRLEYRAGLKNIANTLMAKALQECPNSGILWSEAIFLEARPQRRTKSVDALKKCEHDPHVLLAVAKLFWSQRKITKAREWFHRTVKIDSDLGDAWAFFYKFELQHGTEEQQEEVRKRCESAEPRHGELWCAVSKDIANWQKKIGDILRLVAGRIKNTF

[3] = target: B1

Binder: B1
- binding result [1]: binds

B2: His-tagged PRPF31 A216P mutant (natural protein, human, UniProt Q8WWY3 1-499, looked up)
chain: MSLADELLADLEEAAEEEEGGSYGEEEEEPAIEDVQEETQLDLSGDSVKTIAKLWDSKMFAEIMMKIEEYISKQAKASEVMGPVEAAPEYRVIVDANNLTVEIENELNIIHKFIRDKYSKRFPELESLVPNALDYIRTVKELGNSLDKCKNNENLQQILTNATIMVVSVTASTTQGQQLSEEELERLEEACDMALELNASKHRIYEYVESRMSFIPPNLSIIIGASTAAKIMGVAGGLTNLSKMPACNIMLLGAQRKTLSGFSSTSVLPHTGYIYHSDIVQSLPPDLRRKAARLVAAKCTLAARVDSFHESTEGKVGYELKDEIERKFDKWQEPPPVKQVKPLPAPLDGQRKKRGGRRYRKMKERLGLTEIRKQANRMSFGEIEEDAYQEDLGFSLGHLGKSGSGRVRQTQVNEATKARISKTLQRTLQKQSVVYGGKSTIRDRSSGTASSVAFTPLQGLEIVNPQAAEKKVAEANQKYFSSMAEFLKVKGEKSGLMST
notes: PRPF31 splicing factor, human, with the RP11 patient missense mutation A216P, cDNA in pTriEx-1; A216P is a disease mutation found in RP11 patients; also called mutant PRPF31; not shown: His tag, C-terminal, kept
- ratio of mutant:WT PRPF31 band in the pull-down [2]: 2.1 fold (mutant:WT)
- ratio of mutant:WT PRPF31 band in the pull-down [3]: 4.2 fold (mutant:WT)
